According to US20240358834A1 (University of Pennsylvania, published 2024):

T1: human CD19 protein with a biotinylated AviTag (Acrobiosystems) (human, UniProt P15391 20-291, biotinylated AviTag)
T1 construct: Captured on streptavidin-coated microplate wells; also called biotinylated-AviTag-CD19; hCD19; not shown: AviTag
T1 sequence (looked up): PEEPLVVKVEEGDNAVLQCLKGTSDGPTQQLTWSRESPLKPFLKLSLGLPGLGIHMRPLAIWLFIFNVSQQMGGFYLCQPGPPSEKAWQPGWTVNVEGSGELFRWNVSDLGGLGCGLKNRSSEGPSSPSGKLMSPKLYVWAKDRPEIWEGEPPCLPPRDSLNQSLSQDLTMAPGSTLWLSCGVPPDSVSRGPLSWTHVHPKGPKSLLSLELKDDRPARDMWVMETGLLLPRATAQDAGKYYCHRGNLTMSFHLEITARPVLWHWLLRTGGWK

B1: scFv 13 (scFv)
scFv: QPVLTQPPSVSGALGQTVTISCSGSHTNIGSGFDVQWYQQLPGKSPQTLVYANINRPSGVPARFSGSKSGSTATLTITGVQAEDEADYYCQSYDDNFDYVFGSGTQLTVLGGGSSRSSSSGDGGSGGGGEVQLVESGGGLMKPGGSLKLSCLASGFTFSRYYMYWVRQAPGKGLQWVAQISSDGRRTYYADAVQGRFTISRDNVKNTVYLQMNSLSDEDTAVYYCVREDYFDFDYWGQGTLVTVSSASTTAPSVTSGQAGQHHHHHHGAYPYDVPDYAS
notes: Canine scFv (VL-linker-VH); also called P3-36; P3-38
B2: scFv 1 (scFv)
scFv: QAVLNQPASVSAALGQRVTISCNTNIGSPYDVQWYQQLPGKSPKTIIYGNSNRPSGVPVRFSGSKSGSTATLTIAGIQAEDEADYYCQSYDDSLDGRVVFGGGTQLTVLGGGSSRSSSSGGGGSGGGGEVQLVESGGDLVKPGGSLRLSCVASGFTFSNHEMYWVRQAPGKGLEWVARIYDSGSRTRYADAVKGRFTISRDNAKNTLYLQMNSLTAEDTAVYFCAGGNSRGWTEFGMDYWGPGTLVTVSSASTTAPSVTSGQAGQHHHHHHGAYPYDVPDYAS
notes: Canine scFv (VL-linker-VH); also called scFv_01; P3-15
B3: scFv 11 (scFv)
scFv: QPVLTQPPSVSGALGQTVTISCSGSHTNIGSGFDVQWYQQLPGKSPQTLVYANINRPSGVPARFSGSKSGSTATLTITGVQAEDEADYYCQSYDDNFDYVFGSGTQLTVLGGGSSRSSSSGGGGSGGGGEVQLVESGGDLVKPGGSLRLSCVASGFTFSDYSMSWVRQSPGKGLQWVAAIMTSGSTYYADAVKGRFTISRDNAKNTLYLQMDSLRAEDTAVYYCAHDYWFDFWGQGTLVTVSSASTTAPSVTSGQAGQHHHHHHGAYPYDVPDYAS
notes: Canine scFv (VL-linker-VH); also called P3-57
B4: scFv 15 (scFv)
scFv: SYELTQPPSVSAALGQGVTISCIGSDTNIGNHYDVQWYQQLPGKSPRTIIYGNSDRPSGVPGRFSGSKSGNTATLTITGIQAEDEADYHCQSYDDDLDGHIVFGGGTHLTVLGGGSSRSSSSGGGGSGGGGEVQLVQSGGDLVKPGGSLRLSCVASGFTFNKYHMSWVRQAPGKGLQWVGKITSDGSATGYADAVKGRFTISRDNAKNTFYLQMDSLRAEDTAMYYCARDQSSWGTGNFDYWGQGTLVTVSSASTTAPSVTSGQAGQHHHHHHGAYPYDVPDYAS
notes: Canine scFv (VL-linker-VH); also called P3-59A
B5: scFv 14 (scFv)
scFv: QSVLNQPPSVSAALGQRITISCTGSHTNIGSGYDVQWYQQLPGKSPRTIIYGNSDRPSGVPVRFSGSKSGNTATLTITGIQAEDEADYYCQSYDDNLNDPYVFGSGTQLTVLGGGSSRSSSSGGGGSGGGGEVQLVQSGGDLVKPGGSLRLSCVASGFAFSGKTMQWVRQAPGKGLQWVAYIQHDGSRTSYADAVKGRFTISRDNAKNTLYLQMDSLRAEDTAVYYCADHPWYGPEYWGQGTPVTVSSESPSPPNLTSGQAGQHHHHHHGAYPYDVPDYAS
notes: Canine scFv (VL-linker-VH); also called P3-58
B6: scFv 12 (scFv)
scFv: SYELTQPPSATVTLRQTARLTCGGENIGRKSVQWYQQKPGQSPLLIIYADSSRPSGIPERFSGANSGNTASLTISGALAEDEADYYCQIWDRNINVFGSGTQLTVLGGGSSRSSSSGGGGSGGGGEEQLVEFGGDLVKPAGSLRLSCVASGFTFSSYDMSWVRQAPGKGLQWVATISYDGSSTYYTDAVKGRFTVSRDNAKNTLYLQMNSLRAEDTALYYCAKDSGSWSHFYGLDTWGHGTSVFVSSASTTAPSVTSGQAGQHHHHHHGAYPYDVPDYAS
notes: Canine scFv (VL-linker-VH); also called P3-48
B7: scFv 10 (scFv)
scFv: QAVLNQPASVSGALGQTVTISCSGSHTNIGSGFDVQWYQQLPGKSPQTIIYANINRPSGVPARFSGSKSGSTATLTITGVQAEDEADYHCQSFDDDLDGPVFGGGTHLTVLGGGSSRSSSSGGGGSGGGGEVQLVQSGGDLVKPGGSLKISCVASGLTFNRNYMTWIRQAPGKGLQWVSEINPDGSTTSYTDAVRGRFTISRDNAKNTLYLQMNSMRDEDTAVYYCARSSWGSFDYWGQGTLVTVSSASTTAPSVTSGQAGQHHHHHHGAYPYDVPDYAS
notes: Canine scFv (VL-linker-VH); also called P3-01

target: T1, human CD19 protein with a biotinylated …; assay: phage ELISA, biotinylated AviTag CD19 on streptavidin wells; signal ratio to FMC63 standard
Description: To identify unique human CD19-binding monoclonal scFv from the panned libraries, individual phage antibody clones were expanded, assessed for binding to CD19 by ELISA, and subjected to nucleotide sequencing to identify those clones that were unique. A total of 84 scFvs were randomly selected from the panned libraries (70 from P3 and 14 from P4).

Row | ELISA hCD19 (ratio FMC63) | Binder
1 | 0.28 ratio to FMC63 | B1
2 | 0.84 ratio to FMC63 | B2
3 | 0.31 ratio to FMC63 | B3
4 | 0.99 ratio to FMC63 | B4
5 | 0.59 ratio to FMC63 | B5
6 | 0.16 ratio to FMC63 | B6
7 | 0.77 ratio to FMC63 | B7
